Patent US20230348588A1 (published 2023)

Experiments:
[1] = target: T1, extracellular domain (ECD) of recombinant human Sortilin with a C-terminal HIS tag (ECD-huSortilin-HIS) (human, UniProt Q99523 78-755); assay: SPR (Biacore T200), mAb captured on anti-mouse chip, sortilin as analyte, global 1:1 fit
T1 construct: Bought (R&D Systems); also called human sortilin-ECD
T1 sequence: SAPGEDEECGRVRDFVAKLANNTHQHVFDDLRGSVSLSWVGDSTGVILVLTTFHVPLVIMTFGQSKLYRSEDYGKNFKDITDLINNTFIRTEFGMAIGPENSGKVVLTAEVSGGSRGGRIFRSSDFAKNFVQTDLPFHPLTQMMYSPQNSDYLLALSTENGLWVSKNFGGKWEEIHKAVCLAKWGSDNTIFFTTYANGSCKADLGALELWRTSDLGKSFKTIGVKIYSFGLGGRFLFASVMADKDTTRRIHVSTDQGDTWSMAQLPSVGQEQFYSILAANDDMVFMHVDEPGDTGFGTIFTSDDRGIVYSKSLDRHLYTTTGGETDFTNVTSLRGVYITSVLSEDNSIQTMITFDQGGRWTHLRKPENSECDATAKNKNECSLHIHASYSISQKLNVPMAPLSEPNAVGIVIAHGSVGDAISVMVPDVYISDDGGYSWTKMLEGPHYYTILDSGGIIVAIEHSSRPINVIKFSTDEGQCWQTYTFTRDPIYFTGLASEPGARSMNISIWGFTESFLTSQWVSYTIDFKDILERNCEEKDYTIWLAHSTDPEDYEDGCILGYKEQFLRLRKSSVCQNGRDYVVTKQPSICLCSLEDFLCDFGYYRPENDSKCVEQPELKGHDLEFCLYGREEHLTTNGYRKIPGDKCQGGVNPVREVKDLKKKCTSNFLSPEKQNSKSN
Procedure: Analysis was performed using a Biacore T200 to compare the binding affinity of murine anti-huSortilin antibodies to recombinant human Sortilin. Anti-mouse antibody was immobilized on sensor chip CM5 (GE Healthcare Life Sciences) via amine coupling, and mouse antibodies (ligand) were captured to a level to ensure a maximum binding of analyte of 50 RU (approximately 100RU of ligand binding). Various concentrations of Sortilin (ranging from 0.1 nM to 300 nM) were passed over the captured ligand at 50 µL/min in running buffer (HBS + 0.05% P-20, 1 mg/mL BSA) for 180-300 s association time and 300-900 s dissociation time. Regeneration of the chip surface was accomplished by 2 short injections of 10 mM Glycine-HCI at pH 1.7. Data was blank subtracted to both a sensor not containing ligand and 0 nM analyte concentration. Analysis was performed using a global 1:1 fit with Biacore Insight Evaluation software (v2.0) with bulk refractive index set to zero RU.

[2] = target: T1, extracellular domain (ECD) of …; assay: SPR (Biacore T200), mAb captured on anti-human chip, sortilin as analyte, global 1:1 fit
Procedure: Analysis was performed using a Biacore T200 to compare the binding affinity of chimeric and humanized antibodies to recombinant human Sortilin. Anti-Human antibody was immobilized on sensor chip CM5 (GE Healthcare Life Sciences) via amine coupling, and humanized antibodies (ligand) were captured to a level to ensure a maximum binding of analyte of 50 RU (approximately 100 RU of ligand binding). Various concentrations of Sortilin (ranging from 0.1 nM to 300 nM) were passed over the captured ligand at 50 µL/min in running buffer (HBS + 0.05% P-20, 1 mg/mL BSA) for 300 s association time and 1200 s dissociation time. Regeneration of the chip surface was accomplished by 2 short injections of 3 M MgCl. Data was blank subtracted to both a sensor not containing ligand and 0 nM analyte concentration. Analysis was performed using a global 1:1 fit with Biacore Insight Evaluation software (v2.0) with bulk refractive index set to zero RU.

B1: mouse monoclonal antibody 5E20 (antibody, V domains shown)
VH: EVQLVESGGDLVKPGGSLKLSCAAPGFTFSTYGMSWVRQTPDKRLEWVAIISSGGSYTYYSDTVKGRFTISRDNAKNTLYLQMSSLKSEDTAMYYCSRSSSHWYFDVWGTGTTVTVSS
VL: DILMTQSPSSMSVSLGDTVSITCHASQGISSNIGWLQQKPGKSFKGLIYHGTNLKDGVPSRFSGSGSGADFSLTISSLESEDFADYFCVQYAQFPYTFGGGTKLEKR
notes: also called murine 5E20; m5E20
[1]
  koff: 0.000139 s⁻¹
  kon: 87700 M⁻¹ s⁻¹

B2: chimeric 5E20 (antibody, human IgG1, kappa, L234A L235A, V domains shown)
VH: EVQLVESGGDLVKPGGSLKLSCAAPGFTFSTYGMSWVRQTPDKRLEWVAIISSGGSYTYYSDTVKGRFTISRDNAKNTLYLQMSSLKSEDTAMYYCSRSSSHWYFDVWGTGTTVTVSS
VL: DILMTQSPSSMSVSLGDTVSITCHASQGISSNIGWLQQKPGKSFKGLIYHGTNLKDGVPSRFSGSGSGADFSLTISSLESEDFADYFCVQYAQFPYTFGGGTKLEIKR
[2]
  koff: 0.000396 s⁻¹
  kon: 597000 M⁻¹ s⁻¹

B3: mouse monoclonal antibody 2C14 (antibody, mouse IgG1, V domains shown)
VH: EVQLVESGGDLVKPGGSLKLSCAASGFTFNTHGMSWVRQTPDKSLEWVATISTGGFYTSYPDSVKGRFTISRDNAKNTLFLQMSSLKSEDTAMYYCAKSSSHWYFDVWGTGTTVTVSS
VL: DILMTQSPSSMSVSLGDTVSITCHASQGISSNIGWLQQKPGKSFKGLIYHGTNLEDGVPSRFSGSGSGADYSLTISSLEYEDFADYYCVQYAHFPYTFGGGTKLEIK
[1]
  koff: 0.00245 s⁻¹
  kon: 208000 M⁻¹ s⁻¹

B4: mouse monoclonal antibody 6B15 (antibody, mouse IgG1, V domains shown)
VH: EVQLVESGGDLVKPGGSLKLSCAAPGFTFSTYGMSWVRQTPDKRLEWVAIISSGGSYTYYSDTVKGRFTISRDNAKNTLNLQMSSLKSEDTAMYFCSRSSSHWYFDVWGTGTTVTVSS
VL: DILMTQFPSSMSVSLGDTVSITCHASQGISSNIGWLQQKPGKSFKGLIYHGTNLKDGVPSRFSGSGSGTDFSLTISSLESEDFADYYCVQYAQFPYTFGGGTKLEKR
[1]
  koff: 0.00013 s⁻¹
  kon: 127000 M⁻¹ s⁻¹

B5: mouse monoclonal antibody 8H24 (antibody, V domains shown)
VH: QAYLQQSGTELVRPGASVKMSCKASGYTFTSYSMHWVKQTPRQGLEWIGAIYPGNDATSYNQKFKGKATLTVDKSSSTAYMQLSSLTSEDSAVYFCAREGYYGSSFEAWFASWGQGTLVTVSA
VL: DVLMTQTPLSLPVSLGDQASISCRSSQSIVHSNGNTYLEWYLQKPGQSPKLLIYKVSNRFSGVPDRFSGSGSGTDFTLKISRVEAEDLGVYYCFQGSHVLPTFGGGTKLEIK
notes: also called murine 8H24; m8H24
[1]
  koff: 0.00044 s⁻¹
  kon: 96600 M⁻¹ s⁻¹

B6: hu8H24VHv2/hu8H24VLv2 (antibody, V domains shown)
VH: QAQLVQSGAEVVKPGSSVKVSCKASGYTFTSYSMHWVRQAPGQGLEWIGAIYPGNDATSYNQKFKGRATLTVDKSTSTAYMELSSLRSEDTAVYFCAREGYYGSSFEAWFASWGQGTTVTVSS
VL: DVVMTQTPSSLPVTPGEPASISCRSSQSIVHSNGNTYLEWYLQKPGQSPQLLIYKVSNRFSGVPDRFSGSGSGTDFTLTISRVEAEDVGVYYCFQGSHVLPTFGGGTKVEIK
notes: Humanized variable regions; also called 8H24H2L2
[2]
  koff: 0.0025 s⁻¹

B7: hu8H24VHv2/hu8H24VLv1 (antibody, V domains shown)
VH: QAQLVQSGAEVVKPGSSVKVSCKASGYTFTSYSMHWVRQAPGQGLEWIGAIYPGNDATSYNQKFKGRATLTVDKSTSTAYMELSSLRSEDTAVYFCAREGYYGSSFEAWFASWGQGTTVTVSS
VL: DVVMTQTPLSLPVTPGEPASISCRSSQSIVHSNGNTYLEWYLQKPGQSPQLLIYKVSNRFSGVPDRFSGSGSGTDFTLKISRVEAEDVGVYYCFQGSHVLPTFGGGTKVEIK
notes: Humanized variable regions; also called 8H24H2L1
[2]
  koff: 0.00257 s⁻¹

B8: mouse monoclonal antibody 2P22 (antibody, mouse IgG2b, V domains shown)
VH: EVQLVESGGDLVKPGGSLKLSCAASGFTFSIYGMSWVRQTPDKKLEWVAAISSGGIYTYYPDSVKGRFTISRDNAKNTLYLQMSSLKSADTAMYYCTRNDYDWFAYWGQGTLVTVSA
VL: DIQMTQSPSSLSASLGERVSLTCRASQDIGSSLNWLQQEPDGTIKRLIYATSSLDSGVPKRFSGSRSGSDYSLTISSLESEDFVDYYCLQYASSPYTFGGGTKLEIK
[1]
  koff: 0.000237 s⁻¹
  kon: 108000 M⁻¹ s⁻¹

B9: chimeric 11M14 (antibody, human IgG1, kappa, L234A L235A, V domains shown)
VH: EVQLVESGGDLVKPGGSLKLSCAASGFTFNIYGMSWVRQTPDKRLEWVATISSGGIYTYYPDILKGRFTISRDNAKNTLYLQMSSLKSEDTAMYYCARHPGGAMDYWGQGTSVTVSS
VL: DIQMTQSPASLSVSVGETVTITCRVSENIYSNLAWYQQKQGKSPHLLVYAATNLADGVPSRFSGSGSGTQYSLKINSLQSEDFGSYYCQHFWGTPPWTFGGGTKLEIKR
[2]
  koff: 0.000969 s⁻¹
  kon: 384000 M⁻¹ s⁻¹

B10: mouse monoclonal antibody 11M14 (antibody, V domains shown)
VH: EVQLVESGGDLVKPGGSLKLSCAASGFTFNIYGMSWVRQTPDKRLEWVATISSGGIYTYYPDILKGRFTISRDNAKNTLYLQMSSLKSEDTAMYYCARHPGGAMDYWGQGTSVTVSS
VL: DIQMTQSPASLSVSVGETVTITCRVSENIYSNLAWYQQKQGKSPHLLVYAATNLADGVPSRFSGSGSGTQYSLKINSLQSEDFGSYYCQHFWGTPPWTFGGGTKLEIK
notes: also called murine 11M14; m11M14
[1]
  koff: 0.000569 s⁻¹
  kon: 91100 M⁻¹ s⁻¹

B11: mouse monoclonal antibody 2F18 (antibody, mouse IgG1, V domains shown)
VH: EVQLVESGGDLVKPGGSLKLSCAASGFTFNIYGMSWVRQTPDKRLEWVATISTGGIYTYYPDSVKGRFTISRDNAKNTLYLQMSSLKSEDTAMYYCARHPVGALDYWGQGTSVTVSS
VL: DIQVTQSPASLSVSVGETVTITCRASENIYSNLAWYQQKQGKSPHLLVYTATTLADGVPSRFSGSGSGTQYSLKINSLQSEDFGSYYCQHFWGTPPWTFGGGTKLEIK
[1]
  koff: 0.000162 s⁻¹
  kon: 57600 M⁻¹ s⁻¹
